Experimental findings from patent US20220048967A1 (published 2022) are described below.

For experiment [1], the target named is human GLP-1 receptor (GLP-1R) (human, UniProt P43220 24-463). Nature of the experiment: cell-based or functional assay.
Experiment [2] addresses T1, human gastric inhibitory peptide receptor (GIPR) (human, UniProt P48546 22-466).
T1 sequence (looked up): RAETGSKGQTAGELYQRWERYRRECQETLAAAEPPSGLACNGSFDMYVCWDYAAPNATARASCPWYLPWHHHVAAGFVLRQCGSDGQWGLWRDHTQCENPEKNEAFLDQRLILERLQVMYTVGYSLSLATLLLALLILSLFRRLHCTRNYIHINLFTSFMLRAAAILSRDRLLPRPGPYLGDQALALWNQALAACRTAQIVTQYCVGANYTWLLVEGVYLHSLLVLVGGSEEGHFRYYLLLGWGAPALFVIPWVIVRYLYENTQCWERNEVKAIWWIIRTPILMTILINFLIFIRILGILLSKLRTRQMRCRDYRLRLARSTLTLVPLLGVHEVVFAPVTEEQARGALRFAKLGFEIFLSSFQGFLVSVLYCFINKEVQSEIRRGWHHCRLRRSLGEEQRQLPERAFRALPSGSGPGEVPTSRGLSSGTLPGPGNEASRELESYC
The experiment in a line: cell-based or functional assay.

Numbered stars: 1 amine (or outer) side, 2 acyl side, 3 side chain; on linkers, the order of the positions; unused ones are H or OH. Square brackets hold non-standard residues; d marks the D form. Side chains are listed from the residue outwards. Ends that are not written are not given here. * marks the point of attachment. C20 diacid = O=C(O)CCCCCCCCCCCCCCCCCCC(=O)*; αMePhe(2-F) = C[C@](N)(Cc1ccccc1F)C(=O)O; γGlu = O=C(O)[C@H](CCC(=O)[*:2])N[*:1]; Desaminotyrosyl = O=C(CCc1ccc(O)cc1)*; αMeF = C[C@](N)(Cc1ccccc1)C(=O)O; AEEA = NCCOCCOCC(=O)O; Aib = CC(C)(N)C(=O)O

B1: Example 144 (peptide)
peptide: Y[Aib]EGT[αMeF]TSDYSIXLDKKAQH[Aib]FIEYLIEGGPSSGAPPPS-NH2
modifications: not fully specified (residues 13, 17); printed as Y-Aib-EGT-αMeF-TSDYSI-αMeF-LDKK((2-[2-(2-Amino-ethoxy)-ethoxy]-acetyl)2-(γ-Glu)-CO-(CH2)18-CO2H)AQH-Aib-FIEYLIEGGPSSGAPPPS-NH2
As for B1, in experiment [1], the “hGLP1R cAMP EC50 ratio” value stood at 0.851 and the “hGLP1R cAMP Rel EC50” value was determined as 0.0608 nM. For the same molecule, in experiment [2], the “hGIPR cAMP EC50 ratio” value was 3.6 and the “hGIPR cAMP Rel EC50” value is 0.0375 nM.

B2: Example 134 (peptide)
peptide: [Desaminotyrosyl][Aib]EGT[αMePhe(2-F)]TSDYSIXLDEK([AEEA-AEEA-γGlu-C20 diacid])AQ[Aib]EFIEYLIEGGPSSGAPPPS-NH2
modifications: not fully specified (residue 13); printed as DesTyr-Aib-EGT-αMeF(2F)-TSDYSI-αMeF-LDEK((2-[2-(2-Amino-ethoxy)-ethoxy]-acetyl)2-(γ-Glu)-CO-(CH2)18-CO2H)AQ-Aib-EFIEYLIEGGPSSGAPPPS-NH2
Take B2: in experiment [1], the “hGLP1R cAMP EC50 ratio” value worked out at 0.942 and the “hGLP1R cAMP Rel EC50” value was determined as 0.0654 nM. In experiment [2], the “hGIPR cAMP EC50 ratio” value stood at 1.43 and the “hGIPR cAMP Rel EC50” value amounted to 0.104 nM.

B3: Example 142 (peptide)
peptide: Y[Aib]EGT[αMeF]TSDYSIXLDKKAQ[Aib]HFIEYLIEGGPSSGAPPPS-NH2
modifications: not fully specified (residues 13, 17); printed as Y-Aib-EGT-αMeF-TSDYSI-αMeF-LDKK((2-[2-(2-Amino-ethoxy)-ethoxy]-acetyl)2-(γ-Glu)-CO-(CH2)18-CO2H)AQ-Aib-HFIEYLIEGGPSSGAPPPS-NH2
Regarding B3, in experiment [1], the “hGLP1R cAMP EC50 ratio” value was 1.22 and the “hGLP1R cAMP Rel EC50” value was 0.0426 nM. Moreover, in experiment [2], the “hGIPR cAMP EC50 ratio” value was found to be 2.84 and the “hGIPR cAMP Rel EC50” value turned out to be 0.0489 nM.

B4: Example 139 (peptide)
peptide: Y[Aib]EGT[αMeF]TSDYSIXLDKK([AEEA-AEEA-γGlu-C20 diacid])AQ[Aib]TFIEYLIEGGPSSGAPPPS-NH2
modifications: not fully specified (residue 13); printed as Y-Aib-EGT-αMeF-TSDYSI-αMeF-LDKK((2-[2-(2-Amino-ethoxy)-ethoxy]-acetyl)2-(γ-Glu)-CO-(CH2)18-CO2H)AQ-Aib-TFIEYLIEGGPSSGAPPPS-NH2
In the case of B4, in experiment [1], the “hGLP1R cAMP EC50 ratio” value is 1.13 and the “hGLP1R cAMP Rel EC50” value amounted to 0.0417 nM. Besides, in experiment [2], the “hGIPR cAMP EC50 ratio” value is 3.61 and the “hGIPR cAMP Rel EC50” value was 0.037 nM.

B5: Example 140 (peptide)
peptide: Y[Aib]EGT[αMeF]TSDYSIXLDKKAQ[Aib]DFIEYLIEGGPSSGAPPPS-NH2
modifications: not fully specified (residues 13, 17); printed as Y-Aib-EGT-αMeF-TSDYSI-αMeF-LDKK((2-[2-(2-Amino-ethoxy)-ethoxy]-acetyl)2-(γ-Glu)-CO-(CH2)18-CO2H)AQ-Aib-DFIEYLIEGGPSSGAPPPS-NH2
In the case of B5, in experiment [1], the “hGLP1R cAMP EC50 ratio” value stood at 1.16 and the “hGLP1R cAMP Rel EC50” value came out at 0.0424 nM. Also, in experiment [2], the “hGIPR cAMP EC50 ratio” value came to 3.76 and the “hGIPR cAMP Rel EC50” value was 0.0349 nM.

B6: Example 133 (peptide)
peptide: [Desaminotyrosyl][Aib]EGT[αMeF]TSDYSI[Aib]LDEK([AEEA-AEEA-γGlu-C20 diacid])AQ[Aib]AFIEYLIEGGPSSGAPPPS-NH2
SMILES: CC[C@H](C)[C@H](NC(=O)[C@H](CC(C)C)NC(=O)[C@H](Cc1ccc(O)cc1)NC(=O)[C@H](CCC(=O)O)NC(=O)[C@@H](NC(=O)[C@H](Cc1ccccc1)NC(=O)[C@H](C)NC(=O)C(C)(C)NC(=O)[C@H](CCC(N)=O)NC(=O)[C@H](C)NC(=O)[C@H](CCCCNC(=O)COCCOCCNC(=O)COCCOCCNC(=O)CC[C@H](NC(=O)CCCCCCCCCCCCCCCCCCC(=O)O)C(=O)O)NC(=O)[C@H](CCC(=O)O)NC(=O)[C@H](CC(=O)O)NC(=O)[C@H](CC(C)C)NC(=O)C(C)(C)NC(=O)[C@@H](NC(=O)[C@H](CO)NC(=O)[C@H](Cc1ccc(O)cc1)NC(=O)[C@H](CC(=O)O)NC(=O)[C@H](CO)NC(=O)[C@@H](NC(=O)[C@](C)(Cc1ccccc1)NC(=O)[C@@H](NC(=O)CNC(=O)[C@H](CCC(=O)O)NC(=O)C(C)(C)NC(=O)CCc1ccc(O)cc1)[C@@H](C)O)[C@@H](C)O)[C@@H](C)CC)[C@@H](C)CC)C(=O)N[C@@H](CCC(=O)O)C(=O)NCC(=O)NCC(=O)N1CCC[C@H]1C(=O)N[C@@H](CO)C(=O)N[C@@H](CO)C(=O)NCC(=O)N[C@@H](C)C(=O)N1CCC[C@H]1C(=O)N1CCC[C@H]1C(=O)N1CCC[C@H]1C(=O)N[C@@H](CO)C(N)=O
As for B6, in experiment [1], the “hGLP1R cAMP EC50 ratio” value was 1.52 and the “hGLP1R cAMP Rel EC50” value amounted to 0.0436 nM. In experiment [2], the “hGIPR cAMP EC50 ratio” value was determined as 1.89 and the “hGIPR cAMP Rel EC50” value was 0.0879 nM.

B7: Example 135 (peptide)
peptide: H[Aib]NGTFTSDYSILLDKK([AEEA-AEEA-γGlu-C20 diacid])AQ[Aib]AFIEYLIEGGPSSGAPPPS-NH2
modifications: N-terminus assumed
SMILES: CC[C@H](C)[C@H](NC(=O)[C@H](CC(C)C)NC(=O)[C@H](Cc1ccc(O)cc1)NC(=O)[C@H](CCC(=O)O)NC(=O)[C@@H](NC(=O)[C@H](Cc1ccccc1)NC(=O)[C@H](C)NC(=O)C(C)(C)NC(=O)[C@H](CCC(N)=O)NC(=O)[C@H](C)NC(=O)[C@H](CCCCNC(=O)COCCOCCNC(=O)COCCOCCNC(=O)CC[C@H](NC(=O)CCCCCCCCCCCCCCCCCCC(=O)O)C(=O)O)NC(=O)[C@H](CCCCN)NC(=O)[C@H](CC(=O)O)NC(=O)[C@H](CC(C)C)NC(=O)[C@H](CC(C)C)NC(=O)[C@@H](NC(=O)[C@H](CO)NC(=O)[C@H](Cc1ccc(O)cc1)NC(=O)[C@H](CC(=O)O)NC(=O)[C@H](CO)NC(=O)[C@@H](NC(=O)[C@H](Cc1ccccc1)NC(=O)[C@@H](NC(=O)CNC(=O)[C@H](CC(N)=O)NC(=O)C(C)(C)NC(=O)[C@@H](N)Cc1c[nH]cn1)[C@@H](C)O)[C@@H](C)O)[C@@H](C)CC)[C@@H](C)CC)C(=O)N[C@@H](CCC(=O)O)C(=O)NCC(=O)NCC(=O)N1CCC[C@H]1C(=O)N[C@@H](CO)C(=O)N[C@@H](CO)C(=O)NCC(=O)N[C@@H](C)C(=O)N1CCC[C@H]1C(=O)N1CCC[C@H]1C(=O)N1CCC[C@H]1C(=O)N[C@@H](CO)C(N)=O
With B7, in experiment [1], the “hGLP1R cAMP EC50 ratio” value was determined as 0.509 and the “hGLP1R cAMP Rel EC50” value came out at 0.131 nM. For the same molecule, in experiment [2], the “hGIPR cAMP EC50 ratio” value is 0.482 and the “hGIPR cAMP Rel EC50” value was determined as 0.373 nM.

B8: Example 141 (peptide)
peptide: Y[Aib]EGT[αMeF]TSDYSIXLDKKAQ[Aib]IFIEYLIEGGPSSGAPPPS-NH2
modifications: not fully specified (residues 13, 17); printed as Y-Aib-EGT-αMeF-TSDYSI-αMeF-LDKK((2-[2-(2-Amino-ethoxy)-ethoxy]-acetyl)2-(γ-Glu)-CO-(CH2)18-CO2H)AQ-Aib-IFIEYLIEGGPSSGAPPPS-NH2
As for B8, in experiment [1], the “hGLP1R cAMP EC50 ratio” value turned out to be 0.414 and the “hGLP1R cAMP Rel EC50” value is 0.0975 nM. Besides, in experiment [2], the “hGIPR cAMP EC50 ratio” value came to 0.538 and the “hGIPR cAMP Rel EC50” value amounted to 0.2 nM.

B9: Example 136 (peptide)
peptide: Y[Aib]EGTFTSDASILLDKK([AEEA-AEEA-γGlu-C20 diacid])AQ[Aib]AFIEYLIEAGPSSGAPPPS-NH2
modifications: N-terminus assumed
SMILES: CC[C@H](C)[C@H](NC(=O)[C@H](CC(C)C)NC(=O)[C@H](Cc1ccc(O)cc1)NC(=O)[C@H](CCC(=O)O)NC(=O)[C@@H](NC(=O)[C@H](Cc1ccccc1)NC(=O)[C@H](C)NC(=O)C(C)(C)NC(=O)[C@H](CCC(N)=O)NC(=O)[C@H](C)NC(=O)[C@H](CCCCNC(=O)COCCOCCNC(=O)COCCOCCNC(=O)CC[C@H](NC(=O)CCCCCCCCCCCCCCCCCCC(=O)O)C(=O)O)NC(=O)[C@H](CCCCN)NC(=O)[C@H](CC(=O)O)NC(=O)[C@H](CC(C)C)NC(=O)[C@H](CC(C)C)NC(=O)[C@@H](NC(=O)[C@H](CO)NC(=O)[C@H](C)NC(=O)[C@H](CC(=O)O)NC(=O)[C@H](CO)NC(=O)[C@@H](NC(=O)[C@H](Cc1ccccc1)NC(=O)[C@@H](NC(=O)CNC(=O)[C@H](CCC(=O)O)NC(=O)C(C)(C)NC(=O)[C@@H](N)Cc1ccc(O)cc1)[C@@H](C)O)[C@@H](C)O)[C@@H](C)CC)[C@@H](C)CC)C(=O)N[C@@H](CCC(=O)O)C(=O)N[C@@H](C)C(=O)NCC(=O)N1CCC[C@H]1C(=O)N[C@@H](CO)C(=O)N[C@@H](CO)C(=O)NCC(=O)N[C@@H](C)C(=O)N1CCC[C@H]1C(=O)N1CCC[C@H]1C(=O)N1CCC[C@H]1C(=O)N[C@@H](CO)C(N)=O
For B9, in experiment [1], the “hGLP1R cAMP EC50 ratio” value amounted to 1.1 and the “hGLP1R cAMP Rel EC50” value was 0.06 nM. In addition, in experiment [2], the “hGIPR cAMP EC50 ratio” value was 0.0544 and the “hGIPR cAMP Rel EC50” value was 3.39 nM.

B10: Example 143 (peptide)
peptide: Y[Aib]EGT[αMeF]TSDYSIXLDKKAQ[Aib][Aib]FIEYLIEGGPSSGAPPPS-NH2
modifications: not fully specified (residues 13, 17); printed as Y-Aib-EGT-αMeF-TSDYSI-αMeF-LDKK((2-[2-(2-Amino-ethoxy)-ethoxy]-acetyl)2-(γ-Glu)-CO-(CH2)18-CO2H)AQ-Aib-Aib-FIEYLIEGGPSSGAPPPS-NH2
Take B10: in experiment [1], the “hGLP1R cAMP EC50 ratio” value worked out at 0.714 and the “hGLP1R cAMP Rel EC50” value turned out to be 0.0745 nM. Besides, in experiment [2], the “hGIPR cAMP EC50 ratio” value was determined as 2.78 and the “hGIPR cAMP Rel EC50” value stood at 0.0515 nM.
